Results on 20 sequences are retold here after the DeepSol protein solubility set.

The data set is described as follows: soluble on expression in E. coli; label from the status in PepcDB or PDB records.
On to “MAHHHHHHMSSSSSGQYSGSGGNRGSGFVHLNTPASIQYTAGKTLSLSALRQSKSRVECAVLPESMSVWRDAFQRYSKEEGYSSFAADIEDERTGNGPILPPLVPQRAGPVRRRAGRALVRTDAFFCASSSPAPLGTSASTAHTGADRPPLTDGAAAISSTATAASASSSSRLSDKGTTATSADSVADGSTGPTAKQQQEGIPIVSHHKLLGRQQFVYPDYDGVLSAGVVPQIVVTAEEEAEEAAAKAFYISPLTMTEEELAAFEELQGLWKSRARSHSFLGAQHRKAAKGAVDPSSSADVLEAGGAGLPKVRRCEGVTGGASLSARRGNEIDVPAYAEAETAVEEESKLDKELSEALRMADDLLRFA”, for which the “soluble on expression in E. coli” value is “not soluble”.
Next, “MVYWEYKINQTRRVMKNLKFQSVFDIIGPVMVGPSSSHTAGAVRIGKIVSAIFGDAPTEVEFQLFNSFAKTYRGHGTDVALVAGILGMETDDPDIPHALDIAHEKGIKVYWKINKDSKAPHPNTTRITLKNATKTISATGISIGGGNIQVTELNGF”: “not soluble”.
The entry for “MNVKGFRFSAVEAAIKKPGRLDLALICSDAPAAVAAVYTTNKVKAAPVLLDMERTTSGTCRAVVVNSGNANACTGDRGMEDARETTSLVAERIGASEHEVLVCSTGVIGVPLPMERIRGGIPSLVAGLGSATLDQIAAAIMTTDTFPKLEARTGTAGGVGYTIAGIAKGAGMIMPNMATMLAFVVTDAAVDPQWLDRVFRRANDTSFNAITVDGDMSTNDTAIIMANGAAGNPVLSEGSEGAAEFAVLLEEVLLSLAKLIVKDGEGATKFVEVTVKGARSDADAKRAAMAVANSCLVKTAFFGQDANWGRIFAAVGYSGADVEPDRAELFFDDVRMVQGGVFAGGDAEARGTGVLRKKEFTVTVDLHLGDGRATVYTSDLSYDYVKINADYRTLEHHHHHH” is “not soluble”; for “MQLNATFYSGTCPNASAIVRSTIQQALQSDTRIGASLIRLHFHDCFVNGCDASILLDDTGSIQSEKNAGPNVNSARGFNVVDNIKTALENACPGVVSCSDVLALASEASVSLAGGPSWTVLLGRRDSLTANLAGANSSIPSPIESLSNITFKFSAVGLNTNDLVALSGAHTFGRARCGVFNNRLFNFSGTGNPDPTLNSTLLSTLQQLCPQNGSASTITNLDLSTPDAFDNNYFANLQSNDGLLQSDQELFSTTGSSTIAIVTSFASNQTLFFQAFAQSMINMGNISPLTGSNGEIRLDCKKVNGS” it is “soluble”.
Next, “GPGSMPRCTTLPLSSFPSLLTFMTVCAASSSPPLPRFRVAHLCRRGKDCLALARSLSLPIVEGAEGGGGRCGCSEWRREGAGERCSVFYLSLPASNFMCINFASPLHLRSPGARHIDVQDVPMERNTLQVVASAVNAEALSGAEDHACHASPVHRVYRLRDACTTLQLILLAYKYRRCSAHSMTVAMFVEACAYDLVQGVRVLESAPLSSSPGHDSSGDAIATLEAPWFYIGSEAGGDVRVYLLLPTYADYFLDYTMHWARVAYSEMARQYVGHSLIAKLQTVGGGWASLHRADKSLACALQLHAVAQAVFDEDVVRKCRLFIGWAHLWNSEPAKALEVFYAELAAARRHGDTIQERRCLHAIQNAEHNPRLAPGGAHTGHYQLVNLWWRALA”: “soluble”.
Turning to “MDTFGLIQLAELIYEYCGIDFFKNLSSLESKISERLKELGLSCWEYGGYLRVEPKEWDTLIDLITVNETYFFREENLLEEFQKVILPKYKDRTPNNPLRIWSSACSSGEEPYTLAILSEETGLFETGAVEIIASDIDKKVLEKARRGLYNKKSFSFRTMPKEILDKYFISFGDDYKVKDSIRAMVDFRRVNLLDENKLEKVGEVDIVFCRNVLIYFDTKAINKVINSLYKVLRAGGYLFLGHAETITGMNTGFETIYTPSAFYYRKGERH”, the “soluble on expression in E. coli” value was “not soluble”.
On to “AGHRGQCVGRHREVVAIDNSKATNPHAADSALAGFSSVVWVAGGQLKGAEIDELIVRHAGRIKAVALLGVDRDVIEDSVRTHIPGIPVLSVSETDPRRAMDEAVAWSVSQAEAGDAIVLAPAAASLDMYTGMGQRGDMFATAI”, for which the “soluble on expression in E. coli” value is reported as “not soluble”.
Turning to “MGSDKIHHHHHHMAKYPNTFHRASLMKQMTFADAEYAGKRKHTRRERFLIEMDQVVPWKGLIALIEPHYPKGEGGRPAYPLMAMLRIHLMQNWFGYSDPAMEEALYETTILRQFAGLSLDRIADETTILNFRRLLEKHELAGGILQVINGYLGDRGLMLRQGTVVDATIIHAPSSTKNKDGKRDPEMHQTKKGNQYFFGMKAHIGVDAESGLVHSLVGTAANVADVTQVDQLLHGEETYVSGDAGYTGVDKRAEHQDRQMIWSIAARPSRYKKHGEKSLIARVYRKIEFTKAQLRAKVEHPFRVIKRQFGYTKVRFRGLAKNTAQQATLFALSNLWMVRKRLLAMGEVRL”, the “soluble on expression in E. coli” value is on record as “not soluble”.
The entry for “MAHHHHHHMSDLSTAHASQGYRFDPSRMNGCLHDTIIFKRLPSRLRHSTGSRTRSLRVNRPAVE” is “soluble”.
“MAHHHHHHMVSAPQIRSIPCGSGDFSVMKRSLIARWQSGVHTPHGVVYRGAKMKNWPEQRIPENFKFTEEQRFRTKAIPRDVGTIPRNFVLGVLYRHQPCEVGGLWEHCTNDPEIVLDSKRHLREVLKQAREEGFVTFERDAISNEWLCFLTRERYEEVQRIVTAKSEAVDAHSGLRGAAATETSTYAEKFREMNVEAKEAHARRLEEEVANTTRYLRRFQQREIDYLPYTDLNGKVNFMWWYETRDVQQRADEVLTDSSSSKALAGEEEHKAGSQLEATTASTS”: the “soluble on expression in E. coli” value is recorded as “soluble”.
Next, “IGQVDFGIAGNFSYNKNEILDLGGGDPNKYLDATDGYSQRNKVGEAMNSYYIYRADGFFNSQEEADAYTAKYGNPFGKTFKAGDLRYVDTNKDGKLTADDREYCGSSDPKIIYGFNINAGWKGIDLSLMFNGAAGVKRLFDGYEVYGNFSGDAAHPATIWRDAWTPDNHDASMPRIFYDTNSASSSRSVQSDFWLQDTSYLRLKNLQLGYTLPKGWLNSVGVENIRIYYSVENLLTFDKMKINIDPESTSQRLSSYPLLRTHAFGVNVTF”: “not soluble”; “KADNSSVEKLVVQVQQLDPVKGNKDVGTVEITESAYGLVFTPHLHGLAQGLHGFHIHQNPSCEPKEKDGKLVAGLGAGGHWDPKETKQHGYPWSDNAHLGDLPALFVEHDGSATNPVLAPRLKKLDEVKGHSLMIHEGGDNHSDHPAPLGGGGPRMACGVIK”: “soluble”.
For the sequence “MAHHHHHHMKMISFNVFRHVESPACCPPASFVADLSITSKKNTHKHLLSFFIFPLFLESLSVMLPTQKPVLFTPGPLMTSDTVKEAMLTDYASRDIRFVQAVKFIREELISVAGLDPQKWACILQQGSGSMGIEAAISTIFPRTGGKFLLINSGKYSEKQACVVKRLQFPMVMLKMGEGEELKMSALESIIRANPDITTVGFVHHETSTGMLYPAEQIAEVVRRELPKAKIIIDGISAFGGIPCDYEKACDVLVAAPNKCLHSVPGISIILARRLLIEAAKGCARSATLDLSMQLMSFDKSGQFAVTPPVHVVMALQQALVEYKRDGGLSGRQKTYQAKAQLVREAVKAMGFTLFLGESKPSCANVVVCVNMPRDPRWNFKRFYTYLNERGLIIYPGKASHAETFRFGIIGHTSLANCERLMKCAKEALKSMGIDHLQRKSNM”, the “soluble on expression in E. coli” value is “not soluble”.
On to “MRLKDKAVLITGAAHGIGRATLELFAKEGARLVACDIEEGPLREAAEAVGAHPVVMDVADPASVERGFAEALAHLGRLDGVVHYAGITRDNFHWKMPLEDWELVLRVNLTGSFLVAKAASEAMREKNPGSIVLTASRVYLGNLGQANYAASMAGVVGLTRTLALELGRWGIRVNTLAPGFIETRMTAKVPEKVREKAIAATPLGRAGKPLEVAYAALFLLSDESSFITGQVLFVDGGRTIGAAPA”, for which the “soluble on expression in E. coli” value is listed as “soluble”.
Consider “MIDAVATDSSSTPSNEKPRRARRTRMTGAERRQQLLEIGRTLFAAKGFEGTSVEEIAAKAGVSKPVVYEHFGGKEGLYAVVVDREMRRLLDMVTGSLTAGHPRELCEQAAFALLDYIEEYTDGFRILVRDSPIPQSTGTFASLISDIATQVEDILGREFKNRGFDAKLAPLYAQALVGMVALTGQWWLDVRRPKKAEVAAHLVNLAWHGLDGLEPKPRLIGHRKS”, for which the “soluble on expression in E. coli” value is “not soluble”.
Next, “MEQVFAPWRIEWVERDDTTDDDVDCVFCAFPGREHARQHLVVARTDHAAVMLNNYPYNPGHCMVIPDVHTGDYGDLDADTLLDHARLKQATLDALDAALGPDAFNTGLNLGGGAAGGSIGDHLHTHVVPRWNGDTNFMPVISDTKVIVEALDDTYDRLHDAFLARPDATEAPTGAVFVDFNLEHHHHHH”: “not soluble”; “MGSDKIHHHHHHMATIEILGFPHAYELTAPTSYPDALVFIHGWLNSRGYWQPVTSRLSVDFQCLSYDLRGFGESQSQLETDFHRGSSSASLSAQSLQEINLSFDSLYTPAAYAQDLAALLEQLNITSAWLVGHSLGGTIALWAAAQIPQRIKGVICINAGGGIYLKEAFEQFRMAGQRFLQVRPRWLSQLPLIDLLFTRASVSRPLDRQWARQRVIDFVVADPEAALGALLDSTTEDEVNRLPKLVSQLKQPVYFLAGTDDKVMEPKYVRHLASFHPLFQYCGDNVIEIPDCGHLAMLEQPDAVASHIKSLVIGHG”: “not soluble”.
With “MGSDKIHHHHHHMDPRLLEYYNRELSYLRETGAEFAARHPKVAARLGMQGTDIADPYVERMVEAFSFLTARTQLKIDAEFPRFTQRLLEVVSPNYVTPTPSMSVAQLHPDTEEGDLAKGFTVPRDTAFFSAIPEGESTACQFRSSQDVTLWPLAIEEARLTAAPPDMPALHRYLPANIHVAGALRITLRTFGELTFSQLAGLDRLPFYLCGEERTASHLLELLHTSAIAPLAGIPGHFDGALDVNLQQPVMYEGLEPDQGLLPLAWNVFHGHNLLHEYFACPERFYFFTPTGLSAGLQKIDGGVAEIVILLNRLPPDWLIHQTNAAQFSLFCTPVINLFPRVTARIDVTHSTTEQHLVVDRTHPLDYEVFSVQEVEGLETDTTRKMAFRPLYHTRNNDEGNHGRYFSLRREPRRLSENARRYGTRTPYTGSEVFLSLVDQYEAPYPENLRHITITAMVTNRDLPCLIARNGRDDLTVDAAIPVAGVGLIRPPRSPQPPMAEREMAWRLIRQLSFNYLPLADLDHRTGGQALRDLLNLFIPAHDSPQSRQVRSLIGCKTTPVTRRLPGSGLLVYGRGVSCELTVDEEGFSGISPYLFGLVLEHYIARHVSINTFSQMTLHSMQRGKIMTWPVRAGQRGSV”, the “soluble on expression in E. coli” value was “not soluble”.
Next, “MPKITVYTGKEVLQIDAKEGSSLLDILAENSLYVEAPCGGKGICGKCKVAVKKDGKPYLENITKEEKRLLTSDELQKGIRLCCNLKVFESLEVFLPHSKIGAKILSGLYTLEHHHHHH”: “not soluble”.
In the case of “MAHHHHHHSLNDIVEVEIVDLTHEGAGVAKVDGLVFFVENALPSEKILMRVLKVNKKIGFGKVEKYLVQSPHRNQDLDLAYLRSGIADLGHLSYPEQLKFKTKQVKDSLYKIAGIADVEVAETLGMEHPVKYRNKAQVPVRRVNGVLETGFFRKNSHNLMPLEDFFIQDPVIDQVVVALRDLLRRFDLKPYDEKEQSGLIRNLVVRRGHYSGQIMVVLVTTRPKVFRVDQLIEQVIKQFPEIVSVMQNINDQNTNAIFGKEWRTLYGQDYITDQMLGNDFQIAGLAFYQVNTEMAEKLYQTAIDFAELKKDDVVIDAYSGIGTIGLSVAKHVKEVYGVELIPEAVENSKKNAQLNNISNAHYVCDTAENAMKNWLKDGIQPTVILVDPPRKGLTESFIKASAQTGADRIAYISCNVATMARDIKLYQELGYELKKVQPVDLFPQTHHVETVALLSKLDVDKHISVEIELDEMDLTSAESKATYAQIKEYVWNKFELKVSTLYIAQIKKKCGIELREHYNKSKKDKQIIPQCTPEKEEAIMDALRHFKMIEG”, the “soluble on expression in E. coli” value is “soluble”.
